{"source": "patent US20110033498", "key": {"pro-SUMO-1": {"target": "pro-SUMO-1 (UniProt P63165)", "sequence (P63165 whole entry)": "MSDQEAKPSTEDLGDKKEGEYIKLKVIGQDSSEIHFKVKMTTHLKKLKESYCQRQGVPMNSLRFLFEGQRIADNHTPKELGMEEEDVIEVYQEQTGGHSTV"}, "poly-SUMO-2 chains (2-8)": {"target": "poly-SUMO-2 chains (2-8) (UniProt P61956)", "sequence (P61956 1-93)": "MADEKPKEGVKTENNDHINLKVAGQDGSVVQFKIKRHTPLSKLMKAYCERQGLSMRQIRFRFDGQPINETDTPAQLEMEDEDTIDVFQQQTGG"}}}
{"substance": "His6-SENP2CD (catalytic domain of SENP2)", "values": [{"measurement": "in vitro processing of pro-SUMO-1, Coomassie staining", "setting": "pro-SUMO-1", "result": "could hydrolyze SUMO chains to monomers (FIG. 12D, lane 10) and process pro-SUMO-1"}, {"measurement": "in vitro hydrolysis of poly-SUMO-2 chains, Coomassie staining", "setting": "poly-SUMO-2 chains (2-8)", "result": "the catalytic domain of SENP2 (SENP2CD), a SUMO-specific protease, could hydrolyze SUMO chains to monomers"}, {"measurement": "in vitro hydrolysis of poly-SUMO-2 chains, SDS-PAGE and Coomassie staining", "setting": "poly-SUMO-2 chains (2-8)", "result": "SENP2 reduced the chains to monomers"}, {"measurement": "in vitro hydrolysis of poly-SUMO-3 chains, Coomassie staining", "setting": "poly-SUMO-3 chains (2-8)", "result": "the catalytic domain of SENP2 (SENP2CD), a SUMO-specific protease, could hydrolyze SUMO chains to monomers"}, {"measurement": "in vitro hydrolysis of poly-SUMO-3 chains, anti-SUMO-3 Western blot", "setting": "poly-SUMO-3 chains (2-8)", "result": "An identical result was obtained when poly-SUMO-3(2-8) chains were tested"}]}
